Assay results published in PMC5509884, “Dampened activity of ryanodine receptor channels in mutant skeletal muscle lacking TRIC‐A” (The Journal of Physiology, 2017).

Target: the molecule itself
Test: SDS-PAGE immunoblot of the purified protein; anti-PA tag immunoblot of the fractions of the PA-tag column purification of recombinant TRIC-A from CHO cells (buffers with 0.1% DM); bands marked as monomer, dimer and trimer

B1: mouse TRIC-A (type A trimeric intracellular cation channel), full length, with an N-terminal PA-tag (natural protein, UniProt Q3TMP8 1-298, looked up)
chain: MDLMSALSLGELALSFSRVPLFPVFDLSYFIVSIIYLKYEPGAVELSRRHPVASWLCAMLHCFGSYILADLLLGEPIIDYFSNSSSILLASGVWYLIFFCPLDLFYKCVCFLPVKLIFVAMKEVVRVRKIAVGIHHAHHHYHHGWFIMIATGWVKGSGVALLSNVEQLLRGVWKPETNEILHMSFPTKASLYGAILFTLQQTRWLPVSKASLIFVFTMFMVSCKVFLTATHSHSSPFDILEGYICPVLFGATWGGDHHHDNHGAPHGMGLGTQHSGLPAKAKEELGEGSRKKKTKKAD
notes: TRIC-A (trimeric intracellular cation channel type A), mouse, full-length cDNA; The introduction says, citing other work, that TRIC channels are trimers of three monomers of about 30 kDa; also called purified TRIC-A; recombinant TRIC-A; not shown: PA-tag, N-terminal, kept
B1: binds.
